Experimental data reported in patent publication US20200361992A1 (PROTAGONIST THERAPEUTICS, published 2020).
Starred links: 1 amine or outer side, 2 acyl side, 3 side chain; linkers in the order of their positions; H or OH if unused. Positions of bridges follow the written chain, without caps; N, C: chain ends. Non-standard residues stand in square brackets, D forms with d. Groups on a side chain read outwards from the residue. Primed or numbered codes have the meaning given here. No end group written: not given here. *: point of attachment. Npc″ = L-nipecotic acid, O=C([C@H]1CCCN([*:1])C1)[*:2]; PEG12 = NCCOCCOCCOCCOCCOCCOCCOCCOCCOCCOCCOCCOCCC(=O)O; Palmitoyl = CCCCCCCCCCCCCCCC(=O)*; NMeF = CN[C@@H](Cc1ccccc1)C(=O)O; β3hF = N[C@H](CC(=O)O)Cc1ccccc1; Isovaleryl = CC(C)CC(=O)*; Npc = nipecotic acid

T1: human ferroportin (SLC40A1) fused in frame with the GFP protein, stably expressed in HEK293 cells (human, UniProt Q9NP59 1-571)
T1 sequence (looked up): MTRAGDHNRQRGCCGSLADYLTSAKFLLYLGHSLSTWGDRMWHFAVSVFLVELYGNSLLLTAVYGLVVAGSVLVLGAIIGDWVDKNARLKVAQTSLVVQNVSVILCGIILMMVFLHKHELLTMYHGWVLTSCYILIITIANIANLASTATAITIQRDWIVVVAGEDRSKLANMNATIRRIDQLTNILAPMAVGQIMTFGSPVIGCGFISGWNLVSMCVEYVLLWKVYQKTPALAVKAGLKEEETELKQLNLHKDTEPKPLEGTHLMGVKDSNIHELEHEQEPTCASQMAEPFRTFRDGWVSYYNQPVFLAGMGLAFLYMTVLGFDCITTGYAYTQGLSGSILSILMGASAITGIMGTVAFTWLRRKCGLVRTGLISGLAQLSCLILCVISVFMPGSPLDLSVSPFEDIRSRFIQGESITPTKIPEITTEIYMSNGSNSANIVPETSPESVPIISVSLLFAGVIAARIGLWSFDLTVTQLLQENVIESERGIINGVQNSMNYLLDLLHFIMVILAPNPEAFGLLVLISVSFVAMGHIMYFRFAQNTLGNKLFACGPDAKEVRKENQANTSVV

B1: Compd ID 170 (peptide)
peptide: DTHXPCIKXKCK
modifications: N-terminal isovaleric acid; Dpa 4; (D)Lys 8; bhPhe 9; Lys(Peg11-Palm) 10; (D)Lys 12; C-terminal amide; disulfide between the two Cys (6 and 11)
B2: Compd ID 169 (peptide)
peptide: DTHXPCIKXKKC
modifications: N-terminal isovaleric acid; D-Asp 1; Dpa 4; (D)Lys 8; bhPhe 9; Lys(Peg11-Palm) 10; (D)Lys 11; C-terminal amide; disulfide between the two Cys (6 and 12)
B3: Compd ID 171 (peptide)
peptide: DTHXPCIKFKCK
modifications: N-terminal isovaleric acid; bhPhe 4; (D)Lys 8; Lys(Peg11-Palm) 10; (D)Lys 12; C-terminal amide; disulfide between the two Cys (6 and 11)
B4: Compd ID 175 (peptide)
peptide: DTHXPCIKXKKC
modifications: N-terminal isovaleric acid; Dpa 4; (D)Lys 8; bhPhe 9; Lys(Peg11-Palm) 10; dLys_Ac 11; C-terminal amide; disulfide between the two Cys (6 and 12)
B5: Compd ID 508 (peptide)
chain: DTHFPCIKX
modifications: N-terminal isovaleric acid on each monomer; a-MePhe 9; the two monomers linked through IDA-[(b-Ala)-Palm]; -NH2
B6: Compd ID 509 (peptide)
chain: DTHFPCIIFK
modifications: N-terminal isovaleric acid on each monomer; D-Lys 10; the two monomers linked through IDA-[(b-Ala)-Palm]; -NH2
B7: Compd ID 514 (peptide)
chain: DTHFPCIKX
modifications: N-terminal isovaleric acid on each monomer; D-Lys 8; NMe-Phe 9; the two monomers linked through IDA-[(b-Ala)-Palm]; -NH2
B8: Compd ID 515 (peptide)
chain: DTHXPCIKX
modifications: N-terminal isovaleric acid on each monomer; BIP 4; D-Lys 8; NMe-Phe 9; the two monomers linked through IDA-[(b-Ala)-Palm]; -NH2
B9: Compd ID 517 (peptide)
chain: DTHFPCIKX
modifications: not fully specified; N-terminal isovaleric acid on each monomer; D-Lys 8; b-homoPhe 9; the two monomers linked through IDA-[(b-Ala)-Palm]; -NH2
B10: Compd ID 516 (peptide)
chain: DTHFPCIKX
modifications: N-terminal isovaleric acid on each monomer; b-homoPhe 9; the two monomers linked through IDA-[(b-Ala)-Palm]; -NH2
B11: Compd ID 518 (peptide)
chain: Isovaleryl-DTHF[Npc″]CI[dK][NMeF]
modifications: not fully specified (C-terminus); also: dimer: two monomers linked through IDA-[(b-Ala)-Palm]-NH2
B12: Compd ID 507 (peptide)
chain: DTHFPCIKX
modifications: N-terminal isovaleric acid on each monomer; NMe-Phe 9; the two monomers linked through IDA-[(b-Ala)-Palm]; -NH2
B13: RI-Mini Hepcidin (peptide)
peptide: FICIPFHTD
modifications: all residues D-amino acids (retro inverse); free N-terminus (Hy-); C-terminal amide
B14: Ref. Compd 1 (peptide)
peptide: DTHFPCIKFKPRSKGCK
modifications: N-terminal isovaleric acid; Lys[PEG11-Palm] 10; C-terminal amide; disulfide between the two Cys (6 and 16)

Molecular target: T1, human ferroportin (SLC40A1) fused in …
Experiment: cell-based or functional assay

B1 and B2 are within 1.5-fold of each other in “FPN IC50” value: 10 nM for the first, 12 nM for the second.

Isovaleryl-DTH[β3hF][Npc]CI[dK]FK([PEG12-Palmitoyl])C[dK]-NH2 (disulfide 6-11) [Compd ID 172] and B3 are within 1.5-fold of each other in “FPN IC50” value: 39 nM for the first, 47 nM for the second.

B4 was tested, and the “FPN IC50” value was 5 nM.

Molecular target: T1, human ferroportin (SLC40A1) fused in …
Experiment: cell-based or functional assay
Remark: another data set of the same source

Going from B5 to B6, the “FPN IC50” value rises from 9 nM to 433 nM (48-fold).

Compared with B7, B8 is 6.5-fold higher in “FPN IC50” value: 4 nM for the first, 26 nM for the second.

First: Isovaleryl-DTHFPCIK[Phe(4-OCH2CH2NH2)]K-{Lys(isoGlu-Palm)-NH2} (also: dimer: two monomers linked through K-Lys[isoGlu-Palm]-NH2) [Compd ID 504]
Second: B9
The “FPN IC50” value of the first is 4-fold higher: 20 nM for the first, 5 nM for the second.

B10 and B11 are within 1.5-fold of each other in “FPN IC50” value: 6 nM for the first, 8 nM for the second.

Going from Isovaleryl-DTHFPCI[dK]F-{IDA(βAla-Palm)-NH2} (also: dimer: two monomers joined through IDA) [Compd ID 506] to B12, the “FPN IC50” value rises from 4 nM to 10 nM (2.5-fold).

Molecular target: T1, human ferroportin (SLC40A1) fused in …
Experiment: cell-based or functional assay
Remark: another data set of the same source

With B13 the “Potency EC50 (nM)” value was greater than 10000 nM.

Compared with B14, H-DTHFPICIF-NH2 [Mini-Hepcidin 1-9] is 24-fold higher in “Potency EC50” value: 30 nM for the first, 712 nM for the second.
